# Molecular target: Malayan pangolin ACE2 extracellular domain (residues 1-740) fused with the Fc domain of mouse IgG (Malayan pangolin)
# Test: SPR
substance,measurement,value
SARS-CoV-2 Delta RBD (residues 319-541) (from UniProt P0DTC2 319-541) (domain or fragment),Kd,58.2 nM
